Test system: HeLa Tet3G cells
Assay: Cell proliferation assays: rescue of the proliferation defect induced by respiratory chain inhibitors (nuclei counting)
Format: cell-based, human
Details: no pyruvate, doxycycline-inducible expression; for rescue of proliferation defect caused by piericidin: 1 μM piericidin
Method: Five hundred HeLa Tet3G NDI1, Luciferase, LbNOX or mitoLbNOX cells were seeded in 200 μl of DMEM (DMEM (US Biological, D9800), 3.7 g/L NaHCO3, 10% dialyzed FBS (Life Technologies, 26400-044)) per well in a black 96-well plate with clear bottom (Corning, 3904). Twenty four hours after seeding, media was exchanged to DMEM without pyruvate (DMEM (US Biological, D9802), 15.9 mg/L phenol red, 3.7 g/L NaHCO3, 10% dialyzed FBS (Life Technologies, 26400-044))±10 μg/ml chloramphenicol±30 ng/ml ethidium bromide±1 mM pyruvate±300 ng/ml doxycycline. After 0, 2, 3, 4, 5 and 6 days, media was aspirated and cells were fixed by adding 100 μl of 4% paraformaldehyde in PBS and incubating at room temperature for at least 30 min. Paraformaldehyde solution was aspirated and cells were stained with 200 μl of 1 μg/ml Hoechst 33345 in PBS. Plates were covered with sealing aluminum foil and stored at 4° C. before counting cells in each well with Molecular Dynamics IMAGEXPRESS® Ultra (see “Nuclei counting using Molecular Devices IMAGEXPRESS® Ultra,” below).
One thousand HeLa Tet3G NDI1, Luciferase, LbNOX or mitoLbNOX cells were seeded in 200 μl of DMEM (DMEM (US Biological, D9800), 3.7 g/L NaHCO3, 10% dialyzed FBS (Life Technologies, 26400-044)) per well in a black 96-well plate with clear bottom (Corning, 3904). Twenty four hours after seeding, 10 μl of 6 μg/ml doxycycline (300 ng/ml final concentration) or water was added to each well. Twenty four hours after addition of doxycycline, media was exchanged to DMEM without pyruvate (DMEM (US Biological, D9802), 15.9 mg/L phenol red, 3.7 g/L NaHCO3, 10% dialyzed FBS (Life Technologies, 26400-044)), ±1 μM piericidin, ±1 μM antimycin, ±1 mM pyruvate and ±300 ng/ml doxycycline. After 0, 1, 2, 3 and 4 days, media was aspirated and cells were fixed by adding 100 μl of 4% paraformaldehyde in PBS and incubating at room temperature for at least 30 min. Paraformaldehyde solution was aspirated and cells were stained with 200 μl of 1 μg/ml Hoechst 33345. Plates were covered with sealing aluminum foil and stored at 4° C. before counting cells in each well with Molecular Dynamics IMAGEXPRESS® Ultra (see “Nuclei counting using Molecular Devices IMAGEXPRESS® Ultra,” below).
Two thousand HeLa Tet3G Luciferase cells were seeded in 200 μl of DMEM (DMEM (US Biological, D9800), 3.7 g/L NaHCO3, 10% dialyzed FBS (Life Technologies, 26400-044)) per well in a black 96-well plate with clear bottom (Corning, 3904). Twenty four hours after seeding, media was exchanged to DMEM without pyruvate (DMEM (US Biological, D9802), 15.9 mg/L phenol red, 3.7 g/L NaHCO3, 10% dialyzed FBS (Life Technologies, 26400-044))±1 μM piericidin, ±indicated concentrations of pyruvate, lactate, malate, oxaloacetate, nicotinamide mononucleotide ([…]) or PJ34. After 3 days, media was aspirated and cells were fixed by adding 100 μl of 4% paraformaldehyde in PBS and incubating at room temperature for at least 30 min. Paraformaldehyde solution was aspirated and cells were stained with 200 μl of 1 μg/ml Hoechst 33345. Plates were covered with sealing aluminum foil and stored at 4° C. before counting cells in each well with Molecular Dynamics IMAGEXPRESS® Ultra (see “Nuclei counting using Molecular Devices IMAGEXPRESS® Ultra,” below).
Images of 96-well plates with fixed cells stained with Hoechst 33345 were collected using Molecular Devices IMAGEXPRESS® Micro XLS. Four images were taken to cover the whole well. Images were analyzed and nuclei number per well was counted using CellProfiler 2.0 image analysis software (Carpenter, et al., Genome Biol., 7:R100, 2006; and Kamentsky, et al., Bioinformatics, 27:1179, 2011). […]

Molecule	rescue of proliferation defect caused by ethidium bromide (30 ng/ml ethidium bromide)	rescue of proliferation defect caused by antimycin (1 μM antimycin)	rescue of proliferation defect caused by piericidin	rescue of proliferation defect caused by chloramphenicol (10 μg/ml chloramphenicol)
LbNOX: water-forming NADH oxidase endogenous to Lactobacillus brevis; tested with C-terminal FLAG tag (protein, listed as Lactobacillus brevis, C-terminal FLAG tag) KVTVVGCTHAGTFAIKQILAEHPDAEVTVYERNDVISFLSCGIALYLGGKVADPQGLFYSSPEELQKLGANVQMNHNVLAIDPDQKTVTVEDLTNHAQTTESYDKLVMTSGSWPIVPKIPGIDSDRVKLCKNWAHAQALIEDAKEAKRITVIGAGYIGAELAEAYSTTGHDVTLIDAMARVMPKYFDADFTDVIEQDYRDHGVQLALGETVESFTDSATGLTIKTDKNSYETDLAILCIGFRPNTDLLKGKVDMAPNGAIITDDYMRSSNPDIFAAGDSAAVHYNPTHQNAYIPLATNAVRQGILVGKNLVKPTVKYMGTQSSSGLALYDRTIVSTGLTLAAAKQQGLNAEQVIVEDNYRPEFMPSTEPVLMSLVFDPDTHRILGGALMSKYDVSQSANTLSVCIQNENTIDDLAMVDMLFQPNFDRPFNYLNILAQAAQAKVAQSVNA	rescued completely	rescued completely	rescued completely	rescued completely
TPNOX: NADPH-specific quintuple mutant (G159A/D177A/A178R/M179S/P184R) of LbNOX (protein) KVTVVGCTHAGTFAIKQILAEHPDAEVTVYERNDVISFLSCGIALYLGGKVADPQGLFYSSPEELQKLGANVQMNHNVLAIDPDQKTVTVEDLTNHAQTTESYDKLVMTSGSWPIVPKIPGIDSDRVKLCKNWAHAQALIEDAKEAKRITVIGAGYIAAELAEAYSTTGHDVTLIARSARVMRKYFDADFTDVIEQDYRDHGVQLALGETVESFTDSATGLTIKTDKNSYETDLAILCIGFRPNTDLLKGKVDMAPNGAIITDDYMRSSNPDIFAAGDSAAVHYNPTHQNAYIPLATNAVRQGILVGKNLVKPTVKYMGTQSSSGLALYDRTIVSTGLTLAAAKQQGLNAEQVIVEDNYRPEFMPSTEPVLMSLVFDPDTHRILGGALMSKYDVSQSANTLSVCIQNENTIDDLAMVDMLFQPNFDRPFNYLNILAQAAQAKVAQSVNA			not	

— patent US11866736B2, “Protein prostheses for mitochondrial diseases or conditions” (The General Hospital Corporation, priority 2015, dated 2024)
